Data published in IntAct's records for PubMed 30659753.

B1: Protein KHNYN (Homo sapiens), O15037 (parent)
chain: MPTWGARPASPDRFAVSAEAENKVREQQPHVERIFSVGVSVLPKDCPDNPHIWLQLEGPKENASRAKEYLKGLCSPELQDEIHYPPKLHCIFLGAQGFFLDCLAWSTSAHLVPRAPGSLMISGLTEAFVMAQSRVEELAERLSWDFTPGPSSGASQCTGVLRDFSALLQSPGDAHREALLQLPLAVQEELLSLVQEASSGQGPGALASWEGRSSALLGAQCQGVRAPPSDGRESLDTGSMGPGDCRGARGDTYAVEKEGGKQGGPREMDWGWKELPGEEAWEREVALRPQSVGGGARESAPLKGKALGKEEIALGGGGFCVHREPPGAHGSCHRAAQSRGASLLQRLHNGNASPPRVPSPPPAPEPPWHCGDRGDCGDRGDVGDRGDKQQGMARGRGPQWKRGARGGNLVTGTQRFKEALQDPFTLCLANVPGQPDLRHIVIDGSNVAMVHGLQHYFSSRGIAIAVQYFWDRGHRDITVFVPQWRFSKDAKVRESHFLQKLYSLSLLSLTPSRVMDGKRISSYDDRFMVKLAEETDGIIVSNDQFRDLAEESEKWMAIIRERLLPFTFVGNLFMVPDDPLGRNGPTLDEFLKKPARTQGSSKAQHPSRGFAEHGKQQQGREEEKGSGGIRKTRETERLRRQLLEVFWGQDHKVDFILQREPYCRDINQLSEALLSLNF

Variants of: B1
Conditions: with nedd8_human NEDD8, Q15843
Chain of nedd8_human NEDD8, Q15843 (Q15843 whole entry): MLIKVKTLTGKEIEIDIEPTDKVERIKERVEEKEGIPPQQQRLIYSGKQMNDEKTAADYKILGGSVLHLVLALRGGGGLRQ
For R664E, the “effect of a mutation on the interaction” value was “decreasing interaction”. R659E was tested, and the “effect of a mutation on the interaction” value was “decreasing interaction”. With H651F the “effect of a mutation on the interaction” value was “decreasing interaction”. With K652D the “effect of a mutation on the interaction” value was “decreasing interaction”. W647A was tested, and the “effect of a mutation on the interaction” value was “decreasing interaction”. In the case of W647P, the “effect of a mutation on the interaction” value is reported as “decreasing interaction”.
